From the RNAGym collection of RNA variant scans (doi:10.7554/elife.90254) come the findings set out here.

First the molecules themselves.
B1: OR4K15 (parent)
chain: GUUAACGGUCAUAGGCCAUGGAAACUAGGAGCACCAUUUCGCUGCCAGUGAAGAAAUGAACAAAGAAAAUCUGGGCCAGGCAGGCAUCAAAAGAAAUAGUCUUGCGCUCAACCAGAAAGUCUGUAAUCAUUUUAAGGGUA

The series covers variants of B1. Briefly: self-cleavage, relative activity (ratio to wild type); higher = more cleavage; in vitro, sequencing; the parent is a self-cleaving ribozyme.
For the variant U39C A54G, the self-cleavage was found to be 0.69.

Take U39G U132C: the self-cleavage is 0.94.

Consider U38C U133A, for which the self-cleavage was 1.64.

Regarding U39A A60G, the self-cleavage amounted to 0.99.

Consider U39A A86C, for which the self-cleavage came out at 1.21.

In the case of U43A A98C, the self-cleavage was found to be 1.91.

Regarding U39A A94G, the self-cleavage was determined as 1.47.

As to U39A A94C, the self-cleavage is 1.87.

Regarding C42A G79U, the self-cleavage amounted to 0.02.

As to G41C A67U, the self-cleavage is 1.8.

As to U39C A60C, the self-cleavage came to 2.05.

On to U39C A60U, for which the self-cleavage amounted to 1.88.

Regarding U39C G136A, the self-cleavage is 2.38.

For U39C U57C, the self-cleavage turned out to be 1.64.

As for U39C U57A, the self-cleavage turned out to be 0.92.

Turning to G41A A94G, the self-cleavage is 1.9.

For the variant C42A A91U, the self-cleavage stood at 0.86.

As to U38G A47G, the self-cleavage was determined as 1.78.

Take U39C A64C: the self-cleavage was found to be 1.88.

Consider U39C A64U, for which the self-cleavage was 1.77.

For U39C A140G, the self-cleavage is 1.57.

As for U39C A140U, the self-cleavage was determined as 1.62.

C42A U120A: the self-cleavage was found to be 1.7.

Turning to U38C U102C, the self-cleavage came out at 1.91.

On to U38C U102A, for which the self-cleavage is 1.44.

Turning to U39C A68U, the self-cleavage stood at 2.09.

For C40A A89G, the self-cleavage was found to be 1.44.

Consider G41A A51C, for which the self-cleavage was 1.57.

As to C40G A134G, the self-cleavage is 0.82.

Consider U39C U43A, for which the self-cleavage was found to be 1.92.

Regarding U39C U43C, the self-cleavage was 1.57.

U39A A91G: the self-cleavage is 1.56.

As for G41C U87C, the self-cleavage worked out at 2.03.

For the variant U43A A59G, the self-cleavage amounted to 1.52.

For C40U U57C, the self-cleavage was found to be 1.07.

C42U U139A: the self-cleavage was determined as 2.

For U43A U70C, the self-cleavage was 0.98.

Turning to U43A U70G, the self-cleavage is 1.12.

C42U A129G: the self-cleavage worked out at 1.47.

Consider U38G U108C, for which the self-cleavage is 0.03.

For U39A A129C, the self-cleavage turned out to be 1.24.

As to G41A A62G, the self-cleavage came to 2.53.

Consider U39C G104A, for which the self-cleavage stood at 0.03.

Regarding G41U A66G, the self-cleavage is 1.11.

In the case of G41C A86C, the self-cleavage came out at 0.81.

Regarding U38C U132A, the self-cleavage amounted to 1.77.

Regarding U39A A96U, the self-cleavage stood at 1.71.

Regarding U38C U127G, the self-cleavage was found to be 1.17.

Take U38C U127C: the self-cleavage stood at 0.66.

For U39A A118G, the self-cleavage came to 1.28.

Take U39C C81G: the self-cleavage came out at 0.16.

Turning to U39C C101U, the self-cleavage turned out to be 0.46.

For G41A U124C, the self-cleavage is 1.02.

For the variant U43A U132C, the self-cleavage turned out to be 1.86.

For the variant U43A U132A, the self-cleavage worked out at 1.41.

In the case of C40U A95G, the self-cleavage came out at 1.96.

G41U: the self-cleavage came to 1.74.

Take G41C: the self-cleavage turned out to be 1.78.

Consider G41A, for which the self-cleavage amounted to 1.67.

With U39G A125G, the self-cleavage was found to be 0.62.

As to U38G A114G, the self-cleavage was determined as 0.79.

Take G41U A60G: the self-cleavage amounted to 1.9.

As to G41U U122C, the self-cleavage stood at 1.34.

As for U38C U87A, the self-cleavage stood at 1.6.

As for U38C U87C, the self-cleavage turned out to be 1.26.

Take U39C A95G: the self-cleavage was 1.53.

For U38G C113U, the self-cleavage was found to be 0.07.

In the case of U39C A51U, the self-cleavage amounted to 2.29.

Consider U39G A129G, for which the self-cleavage came to 0.86.

Regarding C40U U108A, the self-cleavage came to 0.01.

For the variant G41U U130C, the self-cleavage was determined as 1.59.

Turning to C40A A78G, the self-cleavage came to 0.32.

Turning to C40U U130C, the self-cleavage was found to be 0.46.

As for G41U A117G, the self-cleavage amounted to 1.93.

Consider C40A U49C, for which the self-cleavage came to 1.85.

Consider G41A U70C, for which the self-cleavage was determined as 1.12.

U43A U100C: the self-cleavage amounted to 2.43.

Turning to C42U U108A, the self-cleavage is 0.

Take U39C A89G: the self-cleavage was found to be 1.73.

With U39C A89C, the self-cleavage is 1.38.

For the variant G41A A111G, the self-cleavage is 0.02.

Regarding U43A A110G, the self-cleavage is 0.19.

Consider U38C G119U, for which the self-cleavage was 1.69.

Consider G41C U43C, for which the self-cleavage stood at 2.19.

Turning to U39C A52C, the self-cleavage was determined as 1.78.

Consider U39C A52G, for which the self-cleavage came out at 1.76.

As for U39C C71A, the self-cleavage was 0.38.

As to U43A A67G, the self-cleavage came out at 1.88.

Consider U39A A68C, for which the self-cleavage came to 1.75.

Consider U39C A94C, for which the self-cleavage was 1.43.

Regarding U39C A94G, the self-cleavage was 1.34.

Take U39A C85G: the self-cleavage was found to be 1.07.

G41A A92G: the self-cleavage was 0.97.

For U39A A92G, the self-cleavage is 0.92.

As to C42U G44A, the self-cleavage amounted to 1.51.

Consider C42G A47U, for which the self-cleavage came out at 1.02.

Consider U39A U131C, for which the self-cleavage turned out to be 1.59.

As to U39C U49A, the self-cleavage is 1.41.

For U39A A55G, the self-cleavage came out at 1.53.

On to U39C C85G, for which the self-cleavage amounted to 0.99.

Take U39A U127C: the self-cleavage is 0.28.

With U43A A51U, the self-cleavage came out at 1.28.

For U43A A51G, the self-cleavage came out at 1.64.

Take G41U A47G: the self-cleavage came out at 1.2.

In the case of U39G A51G, the self-cleavage came out at 1.75.

As for G41C A66U, the self-cleavage was 1.25.

In the case of U39C A116U, the self-cleavage was 0.23.

Regarding G41U A52G, the self-cleavage was 1.47.

For U43A A89U, the self-cleavage was found to be 1.74.

On to U38G A59G, for which the self-cleavage stood at 0.9.

As to U39G A96U, the self-cleavage amounted to 1.58.

For U43A A126U, the self-cleavage came out at 1.41.

On to U43A A126G, for which the self-cleavage is 1.25.

Turning to G41A U122C, the self-cleavage amounted to 1.67.

On to G41C U122A, for which the self-cleavage turned out to be 1.57.

Turning to U38C G99C, the self-cleavage came out at 0.34.

Consider U43A U87C, for which the self-cleavage worked out at 1.55.

Consider U43A U87A, for which the self-cleavage was 1.94.

Consider C40U U97A, for which the self-cleavage was found to be 1.63.

On to C40U U97C, for which the self-cleavage is 0.94.

Take U39C A90G: the self-cleavage worked out at 0.84.

C40A U124C: the self-cleavage was 0.93.

Take G41C A51C: the self-cleavage came to 0.71.

Regarding U43A U130C, the self-cleavage was 1.44.

With U39A U100C, the self-cleavage was 2.25.

Take U39A U100A: the self-cleavage was 0.55.

With G41A U132C, the self-cleavage was 1.79.

For C42G, the self-cleavage turned out to be 1.62.

Turning to C42U, the self-cleavage turned out to be 1.44.

As to C42A, the self-cleavage amounted to 0.45.

As for U39C A135G, the self-cleavage came out at 1.82.

For the variant U39C A135U, the self-cleavage was found to be 1.73.

In the case of G41C A52U, the self-cleavage is 2.16.

Turning to C40A A117G, the self-cleavage came to 2.53.

Regarding U39A A117G, the self-cleavage was determined as 2.24.

Take C40U A126U: the self-cleavage came to 1.31.

With C40G A94G, the self-cleavage stood at 0.63.

Consider U39C A117G, for which the self-cleavage is 1.95.

U39C A117U: the self-cleavage was 1.08.

Regarding U43A U57C, the self-cleavage worked out at 1.15.

As for U38C G93A, the self-cleavage was determined as 2.41.

Take U38C G93U: the self-cleavage turned out to be 2.26.

In the case of U43A A96U, the self-cleavage was 1.72.

In the case of U43A A96G, the self-cleavage is 2.07.

Consider G41A U87A, for which the self-cleavage came out at 1.71.

Regarding U43A A68G, the self-cleavage turned out to be 1.25.

For the variant G41A A125C, the self-cleavage came out at 0.19.

Consider G41A A125G, for which the self-cleavage was 0.77.

Take U39C U127C: the self-cleavage was found to be 1.18.

Turning to C42U A116G, the self-cleavage was 0.68.

Turning to U39C A62U, the self-cleavage was determined as 1.95.

For U39C A62G, the self-cleavage was found to be 0.75.

In the case of C42G A51G, the self-cleavage amounted to 1.47.

On to C42U U127C, for which the self-cleavage came out at 0.99.

In the case of C40U A52G, the self-cleavage came to 1.54.

For C40U U122A, the self-cleavage was found to be 1.3.

Take G41A A140G: the self-cleavage was 1.89.

Regarding U39C U72C, the self-cleavage came out at 0.27.

Regarding U39C U72A, the self-cleavage came out at 0.32.

Take U43A U139G: the self-cleavage turned out to be 2.1.

Turning to U43A U139C, the self-cleavage amounted to 2.42.

U43A G74C: the self-cleavage stood at 0.23.

For C40U A67G, the self-cleavage came out at 0.82.

In the case of U39A U87C, the self-cleavage amounted to 1.53.

Take C40U U132A: the self-cleavage stood at 1.27.

Turning to U38C G75C, the self-cleavage came out at 0.14.

For the variant C40A G65A, the self-cleavage turned out to be 1.
